For one test, the target named is T1, HLA-A02.01 (human).
T1 construct: Purified class I MHC
The test is described as follows: competition with radiolabeled reference peptide, purified MHC I. The protocol:
(§1) Peptides were incubated at varying concentrations with these complexes for 2 days, and the amount of remaining radiolabeled peptide bound to […] was measured using size exclusion gel-filtration.

In test [1] the target is T2, HLA class I molecule A02.01.
T2 construct: Purified MHC class I complex; also called HLA-A02:01
The test is described as follows: competition with radiolabeled reference peptide on purified MHC I. The protocol: as §1

For test [2] the target is unchanged. The test is described as follows: pMHC-I dissociation half-life, 125I-b2m. As for the experimental part:
Briefly, synthetic genes encoding biotinylated MHC-I heavy and light chains are expressed in E. coli and purified from inclusion bodies using standard methods. […] These reactions are carried out in streptavidin coated microplates to bind the biotinylated MHC-I heavy chains to the surface and allow measurement of radiolabeled light chain to monitor complex formation. Dissociation is initiated by addition of higher concentrations of unlabeled light-chain and incubation at 37° C. Stability is defined as the length of time in hours it takes for half of the complexes to dissociate, as measured by scintillation counts.

Experimental findings from patent US20220282217A1 (BIONTECH US, published 2022) are described below.

In the case of SLVRLSSCV (also called TGFBR2(-1)), the IC50 with HLA-A02.01 is 29.9 nM.

In test [1], LLQEFDVQEA (also called NDRG1: ERG) yielded an IC50 of 45 nM. Besides, the “Stability (T1/2 (h))” value in test [2] amounted to 2.5 h. For QTGVMICAYL (also called PTEN, R130Q), in that order: 9760 nM and 0 h. Regarding KSLVRLSSCV (also called TGFBR2(-1)), in the test with HLA-A02.01, the half-maximal inhibitory concentration (IC50) stood at 280 nM. That is a sub-micromolar value. AFSGEYIPTV (also called RAC1, P29S) registered an IC50 in test [1] of 781 nM. The “Stability (T1/2 (h))” value in test [2] stood at 0 h. For FSGEYIPTV (also called RAC1, P29S), the IC50 in test [1] turned out to be 3 nM. Also, in test [2], the “Stability (T1/2 (h))” value worked out at 6.8 h. In test [1], KITEQEKDFL (also called PIK3CA, E542K) returned an IC50 of 1400 nM. Moreover, the “Stability (T1/2 (h))” value in test [2] was 0 h. In the test with HLA-A02.01, LVRLSSCVPV (also called TGFBR2(-1)) yielded an IC50 of 1240 nM.

Molecule QQSDLQPPA (also called MYC, E39D) displayed an IC50 in test [1] of 70 nM. Further, the “Stability (T1/2 (h))” value in test [2] came out at 0 h. With RLSSCVPVAL (also called TGFBR2(-1)), the IC50 with HLA-A02.01 came to 54.2 nM.

With KKLMLLRLNL (also called SEC31A(-1)), the IC50 with HLA-A02.01 stood at 289 nM. Compared with the last molecule, the IC50 is about 5.3-fold higher. Regarding IIIEYCFYG (also called PDGFRa, T674I), the IC50 in test [1] came to 16 nM. Also, the “Stability (T1/2 (h))” value in test [2] worked out at 1.2 h. For FVMSDTTYKI (also called TTK(-1)), the concentration for half-maximal inhibition (IC50) with HLA-A02.01 came out at 62.4 nM. That is a double-digit nanomolar value. For LQEFDVQEAL (also called NDRG1: ERG), in test [1], the IC50 stood at 50300 nM. Further, the “Stability (T1/2 (h))” value in test [2] came to 0 h. In turn, FALCGFWQI (also called SLC35F5(-1)) displayed an IC50 with HLA-A02.01 of 0.4 nM. Consider FELLPIPPL (also called MYC, T58I), for which the IC50 in test [1] was 553 nM. Further, in test [2], the “Stability (T1/2 (h))” value came out at 0 h. For YIIIEYCFYG (also called PDGFRa, T674I) the same measures were 113 nM and 0 h. FVQGKDWGL (also called SPOP, F133L): in the test with HLA-A02.01, the IC50 amounted to 34 nM.

LLSTPPLSPS (also called MYC, P57S) came in with an IC50 in test [1] of 1770 nM. Also, in test [2], the “Stability (T1/2 (h))” value was found to be 0 h. For ALMSAMTTS (also called TGFBR2(-1)), the IC50 in the test with HLA-A02.01 was determined as 139 nM. That is a sub-micromolar value.

In turn, VMSDTTYKI (also called TTK(-1)) displayed an IC50 with HLA-A02.01 of 19.6 nM.

The molecule QQQSDLQPPA (also called MYC, E39D) yielded an IC50 in test [1] of 646 nM. Also, the “Stability (T1/2 (h))” value in test [2] is 0 h.

B1: IMSLWGLVS (peptide)
peptide: IMSLWGLVS
notes: also called NAB: STAT6 (variant 1 of Chmielecki et al.)
For the molecule B1, the IC50 in test [1] stood at 7320 nM. Moreover, the “Stability (T1/2 (h))” value in test [2] amounted to 0 h. With VRLSSCVPVA (also called TGFBR2(-1)), in the test with HLA-A02.01, the IC50 was 1210 nM.
